# Laboratory results as given in patent publication US20230265151A1, “GIP/GLP1 CO-AGONIST COMPOUNDS” (priority 2020, published 2023).
# Experiments:
# [1] = biological target: T1, human GIP receptor (human, UniProt P48546 22-466); assay: SPA competition vs [125I]-GIP, hGIPR membranes
# T1 construct: whole, on cells; also called hGIPR; human glucose-dependent insulinotropic polypeptide receptor
# T1 sequence (looked up): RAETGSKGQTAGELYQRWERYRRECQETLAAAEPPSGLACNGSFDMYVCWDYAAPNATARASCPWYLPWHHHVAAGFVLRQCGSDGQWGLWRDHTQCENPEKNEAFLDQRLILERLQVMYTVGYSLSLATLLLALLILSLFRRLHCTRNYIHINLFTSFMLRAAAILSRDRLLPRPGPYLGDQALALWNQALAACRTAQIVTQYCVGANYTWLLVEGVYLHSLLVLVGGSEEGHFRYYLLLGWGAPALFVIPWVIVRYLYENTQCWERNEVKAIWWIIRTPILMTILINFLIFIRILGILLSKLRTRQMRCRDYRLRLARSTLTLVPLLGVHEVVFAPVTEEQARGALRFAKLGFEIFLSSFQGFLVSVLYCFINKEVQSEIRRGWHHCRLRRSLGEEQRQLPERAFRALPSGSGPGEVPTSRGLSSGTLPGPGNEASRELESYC
# Protocol: The binding buffer contains 25 mM HEPES, pH 7.4, 2.5 mM CaCl₂, 1 mM MgCl₂, 0.1% (w/v) bacitracin, 0.003% (w/v) TWEEN®-20, and Roche Complete™ Protease Inhibitors without EDTA. […] Plates are sealed and mixed on a plate shaker (setting 6) for 1 minute and read with a PerkinElmer Trilux MicroBeta® scintillation counter after 2.5 to 12 hours of incubation/settling time at room temperature.
# (§1) Data are analyzed using four-parameter (curve maximum, curve minimum, IC₅₀, Hill slope) nonlinear regression routines (Genedata Screener, version 12.0.4, Genedata AG, Basal, Switzerland). […] Values for Kᵢ are reported as the geometric mean, with error expressed as the standard error of the mean (SEM) and n is equal to the number of independent replicates (determined in assays performed on different days). Geometric Means are calculated as follows: […]
# [2] = biological target: T2, human GLP-1 receptor (human, UniProt P43220 24-463); assay: SPA competition vs [125I]-GLP-1, hGLP-1R membranes
# T2 construct: whole, on cells; also called hGLP-1R; human glucagon-like peptide-1 receptor
# Protocol: The binding buffer contains 25 mM HEPES, pH 7.4, 2.5 mM CaCl₂, 1 mM MgCl₂, 0.1% (w/v) bacitracin, 0.003% (w/v) TWEEN®-20, and Roche Complete™ Protease Inhibitors without EDTA.
# as §1
# [3] = biological target: human GLP-1 receptor (human, UniProt P43220 24-463); assay: cell-based or functional assay
# [4] = biological target: T3, human GIP receptor (human, UniProt P48546 22-466); assay: cell-based or functional assay
# T3 sequence (looked up): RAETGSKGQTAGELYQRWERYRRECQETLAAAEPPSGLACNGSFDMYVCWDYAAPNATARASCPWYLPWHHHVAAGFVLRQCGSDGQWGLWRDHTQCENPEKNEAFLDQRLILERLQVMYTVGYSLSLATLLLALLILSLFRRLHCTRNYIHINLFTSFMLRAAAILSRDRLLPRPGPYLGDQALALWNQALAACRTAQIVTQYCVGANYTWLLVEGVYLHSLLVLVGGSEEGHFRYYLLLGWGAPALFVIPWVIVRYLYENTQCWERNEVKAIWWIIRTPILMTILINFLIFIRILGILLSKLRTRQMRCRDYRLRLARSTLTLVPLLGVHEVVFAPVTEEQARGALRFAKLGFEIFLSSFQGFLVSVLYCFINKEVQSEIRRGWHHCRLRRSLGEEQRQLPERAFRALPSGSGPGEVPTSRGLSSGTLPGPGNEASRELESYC
# [5] = biological target: human glucagon receptor (human, UniProt P47871 26-477); assay: cell-based or functional assay
Binder,Ki [1] [nM],Ki [2] [nM],"EC50, cAMP [3] [nM]","EC50, cAMP [4] [nM]","Emax, cAMP [4] [%]","EC50, cAMP [5] [nM]","Emax, cAMP [3] [%]"
"YXEGTXTSDXSIXLDXKAQXEFIXXLIEGGKSSGAPPPS (Aib2, αMeF6, 4Pal10, αMeF13, Orn16, K17(Z1), Aib20, D-Glu24, αMeY25, K31(Z1), C-term NH2; Z1=AEEA2-(γ-Glu)-CO-(CH2)12-CO2H)",0.0683,6.1,,,,,
"YXEGTXTSDXSIXLDXKAQXEFIXXLIEGGKSSGAPPPS (Aib2, αMeF(2F)6, 2TA10, αMeL13, Orn16, Aib20, D-Glu24, αMeY25, K17 and K31: K(AEEA2-(γ-Glu)-CO-(CH2)12-CO2H), C-terminal NH2) [Example 145]",,,0.555,0.0286,74.8,> 9950,
"YXEGTXTSDXSIXLDXKAQXEFIXXLIEGGKSSGAPPPX (Aib2, αMeF(2F)6, 4Pal10, αMeL13, Orn16, Aib20, D-Glu24, αMeY25, Orn39, K17 and K31: K(AEEA2-(γ-Glu)-CO-(CH2)12-CO2H), C-terminal NH2) [Example 154]",,,1.69,0.0299,96.6,> 9950,
"YXEGTXTSDXSIXLDXKAQXEFIXXLIXGGKSSGAPPPS (Aib2, αMeF(2F)6, 4Pal10, αMeL13, Orn16, Aib20, D-Glu24, αMeY25, Orn28, K17 and K31: K(AEEA2-(γ-Glu)-CO-(CH2)12-CO2H), C-terminal NH2) [Example 151]",,,0.546,0.0197,,> 9950,
"YXEGTXTSDXSIXLDXKAQXEFIKXLIEGGPSSGAPPPS (Aib2, αMeF(2F)6, 4Pal10, αMeL13, Orn16, Aib20, αMeY25, K17 and K24: K(AEEA2-(γ-Glu)-CO-(CH2)12-CO2H), C-terminal NH2) [Example 16]",,,0.245,0.0113,,> 9950,
"YXEGTXTSDXSIXLDXKAQXEXIXXLIEGGKSSGAPPPS (Aib2, αMeF(2F)6, 4Pal10, αMeL13, Orn16, Aib20, Bzt22, D-Glu24, αMeY25, K17 and K31: K(AEEA2-(γ-Glu)-CO-(CH2)12-CO2H), C-terminal NH2) [Example 147]",,,0.338,0.0229,,> 9950,93.5
"YXEGTXTSDXSIXLDXKAQXEFIXXLIEGXKSSGAPPPS (Aib2, αMeF(2F)6, 4Pal10, αMeL13, Orn16, Aib20, D-Glu24, αMeY25, Orn30, K17 and K31: K(AEEA2-(γ-Glu)-CO-(CH2)12-CO2H), C-terminal NH2) [Example 152]",,,3.91,0.0416,97.9,> 9950,
"YXEGTXTSDXSIXLDXKAQXEFIXXLIEGGKSSGAPPPS (Aib2, αMeF(2F)6, 3TA10, αMeL13, Orn16, Aib20, D-Glu24, αMeY25, K17 and K31: K(AEEA2-(γ-Glu)-CO-(CH2)12-CO2H), C-terminal NH2) [Example 146]",,,0.688,0.0198,76.5,> 9950,
"YXEGTXTSDXSIXLDXKAQXEFIXXLIEGGKSSGAPPPS (Aib2, αMeF6, αMeF10, αMeL13, Orn16, K17(Z1), Aib20, D-Glu24, αMeY25, K31(Z1), C-term NH2; Z1=AEEA2-(γ-Glu)-CO-(CH2)12-CO2H)",0.0891,6.9,,,,,
"YXEGTXTSDXSIXLDXKAQXXFIXXLIEGGKSSGAPPPS (Aib2, αMeF(2F)6, 4Pal10, αMeL13, Orn16, Aib20, Orn21, D-Glu24, αMeY25, K17 and K31: K(AEEA2-(γ-Glu)-CO-(CH2)12-CO2H), C-terminal NH2) [Example 150]",,,0.455,0.0268,,> 9950,
"YXEGTXTSDXSIXLDXKAQXEFIXXLIEGKPSSGAPPPS (Aib2, αMeF(2F)6, 4Pal10, αMeL13, Orn16, K17(Z1), Aib20, D-Glu24, αMeY25, K30(Z1), C-term NH2; Z1=AEEA2-(γ-Glu)-CO-(CH2)12-CO2H)",0.0769,8.41,,,,,
"YXEGTXTSDXSIXLDXKAQXEFIXXLIKGGPSSGAPPPS (Aib2, αMeF(2F)6, 4Pal10, αMeL13, Orn16, K17(Z1), Aib20, D-Glu24, αMeY25, K28(Z1), C-term NH2; Z1=AEEA2-(γ-Glu)-CO-(CH2)10-CH3)",0.0415,0.268,,,,,
"YXEGTXTSDXSIXLDXKAQXKFIXXLIEGGPSSGAPPPS (Aib2, αMeF(2F)6, 4Pal10, αMeL13, Orn16, K17(Z1), Aib20, K21(Z1), D-Glu24, αMeY25, C-term NH2; Z1=AEEA2-(γ-Glu)-CO-(CH2)12-CO2H)",0.0629,2.11,,,,,
"YXEGTXTSDXSKXLDXKAQXEFIXXLIEGGPSSGAPPPS (Aib2, αMeF(2F)6, 4Pal10, K12(Z1), αMeL13, Orn16, K17(Z1), Aib20, D-Glu24, αMeY25, C-term NH2; Z1=AEEA2-(γ-Glu)-CO-(CH2)12-CO2H)",0.0972,3.01,,,,,
"YXEGTXTSDXSIXLDXKAQXEFIXXLIKGGPSSGAPPPS (Aib2, αMeF(2F)6, 4Pal10, αMeL13, Orn16, K17(Z1), Aib20, D-Glu24, αMeY25, K28(Z1), C-term NH2; Z1=AEEA2-(γ-Glu)-CO-(CH2)12-CO2H)",0.0649,3.18,,,,,
